Columns and labels:
[1] = target: T1, recombinant HER2 ectodomain (UniProt P04626 23-652, limits assumed); test: column shift assay: size exclusion chromatography of the Avibody with and without soluble antigen (recombinant HER2 ectodomain), A280
T1 construct: extracellular domain

[2] = target: T1, recombinant HER2 ectodomain; test: as above; remark: listed apart in the source
[3] = target: T1, recombinant HER2 ectodomain; test: column shift assay: size exclusion chromatography of the PEG24 conjugate with and without soluble antigen (recombinant HER2 ectodomain), A280

B1: AVP07-63 anti-HER2 diabody (Cys at Kabat L8 and L12, CDR3H cysteines removed, N-terminal serine; Myc+(His)6 tag) (other)
chain: SVQLVQSGAEVKKPGESLKISCKGSGYSFTSYWIAWVRQMPGKGLEYMGLIYPGDSDTKYSPSFQGQVTISVDKSVSTAYLQWSSLKPSDSAVYFCARHDVGYASSSNAAKWPEYFQHWGQGTLVTVSSGGGGSQSVLTQPCSSCAAPGQKVTISCSGSSSNIGNNYVSWYQQLPGTVPKLLIYGHTNRPAGVPDRFSGSKSGTSASLAISGFRSEDEADYYCAAWDDSLSGWVFGGGTKLTVLG
notes: Diabody
binding result [1]: binds

B2: AVP07-68 anti-HER2 diabody (Cys at Kabat L8 and L12, CDR3H cysteines removed, N-terminal serine; (His)6 tag) (other)
chain: SVQLVQSGAEVKKPGESLKISCKGSGYSFTSYWIAWVRQMPGKGLEYMGLIYPGDSDTKYSPSFQGQVTISVDKSVSTAYLQWSSLKPSDSAVYFCARHDVGYASSSNAAKWPEYFQHWGQGTLVTVSSGGGGSQSVLTQPCSSCAAPGQKVTISCSGSSSNIGNNYVSWYQQLPGTVPKLLIYGHTNRPAGVPDRFSGSKSGTSASLAISGFRSEDEADYYCAAWDDSLSGWVFGGGTKLTVLG
notes: Diabody; It is identical to AVP07-63 except that it carries only the C-terminal (His)6 tag
binding result [2]: binds

B3: AVP07-63-PEG24 L8-L12 Diabody (other)
VH-linker-VL polypeptide of the diabody: SVQLVQSGAEVKKPGESLKISCKGSGYSFTSYWIAWVRQMPGKGLEYMGLIYPGDSDTKYSPSFQGQVTISVDKSVSTAYLQWSSLKPSDSAVYFCARHDVGYASSSNAAKWPEYFQHWGQGTLVTVSSGGGGSQSVLTQPCSSCAAPGQKVTISCSGSSSNIGNNYVSWYQQLPGTVPKLLIYGHTNRPAGVPDRFSGSKSGTSASLAISGFRSEDEADYYCAAWDDSLSGWVFGGGTKLTVLG
modifications: engineered cysteines at Kabat L8 and L12 (VL FR1) conjugated with maleimide-PEG24-methoxy
notes: also called PEGylated AVP07-63
binding result [3]: binds

B4: AVP07-17 anti-HER2 diabody (other)
chain: QVQLVQSGAEVKKPGESLKISCKGSGYSFTSYWIAWVRQMPGKGLEYMGLIYPGDSDTKYSPSFQGQVTISVDKSVSTAYLQWSSLKPSDSAVYFCARHDVGYCSSSNCAKWPEYFQHWGQGTLVTVSSGGGGSQSVLTQPPSVSAAPGQKVTISCSGSSSNIGNNYVSWYQQLPGTVPKLLIYGHTNRPAGVPDRFSGSKSGTSASLAISGFRSEDEADYYCAAWDDSLSGWVFGGGTKLTVLG
notes: Diabody of two VH-Gly4Ser-VL chains from a human anti-HER2 mAb, with a lambda VL; also called AVP07-17 Avibody
binding result [1]: binds

B5: AVP07-71 anti-HER2 scFv (Cys at Kabat L8 and L12, CDR3H cysteines removed, N-terminal serine) (scFv)
scFv: SVQLVQSGAEVKKPGESLKISCKGSGYSFTSYWIAWVRQMPGKGLEYMGLIYPGDSDTKYSPSFQGQVTISVDKSVSTAYLQWSSLKPSDSAVYFCARHDVGYASSSNAAKWPEYFQHWGQGTLVTVSSGGGGSGGGGSGGGGSQSVLTQPCSSCAAPGQKVTISCSGSSSNIGNNYVSWYQQLPGTVPKLLIYGHTNRPAGVPDRFSGSKSGTSASLAISGFRSEDEADYYCAAWDDSLSGWVFGGGTKLTVLG
notes: Monomeric scFv, unconjugated
binding result [1]: binds

Source: patent US20120164068A1 (AVIPEP, published 2012)
